B2: CpcC1 (rod linker protein) (natural protein)
chain: not shown
notes: phycocyanin-associated rod linker CpcC1 of Synechocystis sp; PCC 6803; Pfam00427 domain at the N-terminus, Pfam01383 domain at the C-terminus; native protein in the isolated CpcL-PBS; model started from the AlphaFold database entry; source: endogenous, Synechocystis 6803 ΔapcAB mutant strain; purified as part of CpcL-PBS (sucrose gradient)
B5: CpcL (linker protein of CpcL-PBS) (natural protein, UniProt P74625 1-249, looked up)
chain: MTLPLIAYAPVSQNQRVTNYEVSGDEHARIFTTEGTLSPSAMDNLIAAAYRQVFNEQQMIQSNRQIALESQFKNQQITVRDFIRGLALSDSFRRRNFEVNNNYRFVQMCIQRLLGRDVYSEEEKIAWSIVIATKGLPGFINELLNSQEYLENFGYDTVPYQRRRILPQRISGELPFARMPRYGADHREKLEAIGYFRNQAPLTYRWEWQKQPYPAGVYLAGKVVLYVGGALVSLGIIAVALSAWGIIGL
notes: linker protein CpcL (also called CpcG2) of Synechocystis sp; PCC 6803; Pfam00427 domain resolved, transmembrane region not resolved in the map; native protein in the isolated CpcL-PBS; model started from the AlphaFold database entry; also called CpcG2; source: endogenous, Synechocystis 6803 ΔapcAB mutant strain; purified as part of CpcL-PBS (sucrose gradient)

Experiment in all cases: cryo-EM structure; CpcL-PBS isolated from the ΔapcAB strain on a sucrose gradient (0.75 M K/Na-PO4 pH 7.0, 0.0125% glutaraldehyde, 0.03% β-DDM, 22 °C); phosphate diluted on the grid with 50 mM Tris pH 7.0, 0.01% β-DDM; map at 2.64 Å
Data set [1] addresses T1, three-domain ferredoxin-NADP+ oxidoreductase (FNR3D) (Synechocystis sp. PCC 6803 (endogenous …, UniProt Q55318 1-413)).
T1 construct: ferredoxin-NADP+ oxidoreductase (PetH) of Synechocystis sp; only the CpcD (Pfam01383) domain is resolved in the map; model started from the AlphaFold database entry of PetH; also called PetH; source: endogenous, Synechocystis 6803 ΔapcAB mutant strain; purified as part of CpcL-PBS (sucrose gradient)
The following applies: both partners purified.

The target in data set [2] is B5. The conditions noted are these: both partners purified.
Data set [3] concerns the molecule itself.
Data set [4] concerns the target B2. The conditions noted are these: both partners purified.

The source of these data is article PMC10322944, “Cryo-EM and femtosecond spectroscopic studies provide mechanistic insight into the energy transfer in CpcL-phycobilisomes” (Nature Communications, 2023).

T1 sequence (Q55318 whole entry): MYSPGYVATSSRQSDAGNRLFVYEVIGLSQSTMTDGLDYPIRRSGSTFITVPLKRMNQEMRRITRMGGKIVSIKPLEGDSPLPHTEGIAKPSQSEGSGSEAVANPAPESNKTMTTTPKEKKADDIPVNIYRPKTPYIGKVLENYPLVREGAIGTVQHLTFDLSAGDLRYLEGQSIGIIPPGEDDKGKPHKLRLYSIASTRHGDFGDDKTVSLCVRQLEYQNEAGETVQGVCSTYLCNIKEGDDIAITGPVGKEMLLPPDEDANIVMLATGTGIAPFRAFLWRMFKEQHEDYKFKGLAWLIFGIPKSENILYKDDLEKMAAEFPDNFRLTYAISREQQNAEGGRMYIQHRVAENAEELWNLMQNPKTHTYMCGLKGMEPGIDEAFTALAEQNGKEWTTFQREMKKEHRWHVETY

B1: CpcC2 (rod linker protein) (natural protein)
chain: not shown
notes: phycocyanin-associated rod linker CpcC2 of Synechocystis sp; PCC 6803; Pfam00427 domain at the N-terminus, Pfam01383 domain at the C-terminus; native protein in the isolated CpcL-PBS; model started from the AlphaFold database entry; source: endogenous, Synechocystis 6803 ΔapcAB mutant strain; purified as part of CpcL-PBS (sucrose gradient)
As to B1, the binding result in data set [1] is given as “binds”.
As to B2, the stoichiometry N (usually the number of molecules, sites or subunits per partner or assembly) in data set [2] stood at 1.

B3: phycocyanin (PC) αβ monomer (CpcA-CpcB heterodimer) (complex)
chain 1: not shown
chain 2: MFDVFTRVVSQADARGEYLSGSQLDALSATVAEGNKRIDSVNRITGNASAIVSNAARALFAEQPQLIQPGGNAYTSRRMAACLRDMEIILRYVTYATFTGDASVLEDRCLNGLRETYVALGVPGASVAAGVQKMKEAALDIVNDPNGITRGDCSAIVAEIAGYFDRAAAAVA
modifications: phycocyanobilin (PCB) covalently attached (bilin α84) | phycocyanobilin (PCB) covalently attached (bilins β82 and β152; printed β155 in p-0013)
notes: C-phycocyanin alpha subunit CpcA of Synechocystis sp; PCC 6803; as m1; C-phycocyanin beta subunit CpcB of Synechocystis sp; as m2; made for the self-association of the αβ monomer into trimers and hexamers; 18 αβ monomers stand in the three-layered CpcL-PBS; source: endogenous, Synechocystis 6803 ΔapcAB mutant strain; purified as part of CpcL-PBS (sucrose gradient)
Consider B3, for which the “stoichiometry N” value in data set [3] was found to be 6.

B4: CpcB (phycocyanin β subunit) (natural protein, UniProt Q54714 1-172, looked up)
chain: MFDVFTRVVSQADARGEYLSGSQLDALSATVAEGNKRIDSVNRITGNASAIVSNAARALFAEQPQLIQPGGNAYTSRRMAACLRDMEIILRYVTYATFTGDASVLEDRCLNGLRETYVALGVPGASVAAGVQKMKEAALDIVNDPNGITRGDCSAIVAEIAGYFDRAAAAVA
modifications: phycocyanobilin (PCB) covalently attached (bilins β82 and β152; printed β155 in p-0013)
notes: C-phycocyanin beta subunit CpcB of Synechocystis sp; PCC 6803; native protein in the isolated CpcL-PBS; 18 copies in the three-layered CpcL-PBS; also called β-PC; PC β subunit; source: endogenous, Synechocystis 6803 ΔapcAB mutant strain; purified as part of CpcL-PBS (sucrose gradient)
With B4, the binding result in data set [2] is “binds”.
For the molecule B5, the binding result in data set [4] is reported as “binds”.
